The text below walks through data of paper PMC3325211, “Mutations in MITF and PAX3 Cause “Splashed White” and Other White Spotting Phenotypes in Horses”.

In the data set the target is MITF wild-type (DNA-binding fragment) (UniProt Q95MD1 112-207). Put plainly: EMSA; 5 mM MgCl2; 20 mM Tris, 50 mM NaCl, 5 mM MgCl2, 1 mM DTT, 33 ug/ml BSA, pH 7.4, on ice 30 min; 6% native PAGE in 0.5x TBE. As to conditions: protein: recombinant; (Ni-NTA purified); chain copies: 2; label: radioactive label. (Mobility shift assays separate free from complexed probe on a gel.)
Sequence of MITF wild-type (DNA-binding fragment) (Q95MD1 entry or part of it): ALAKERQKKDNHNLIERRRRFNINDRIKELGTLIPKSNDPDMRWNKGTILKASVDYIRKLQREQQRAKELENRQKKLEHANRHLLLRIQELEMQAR

B1: M-box oligonucleotide (dsDNA)
DNA 1: GGAAAGTTAGTCATGTGCTTTTCAGAAGA
DNA 2: TCTTCTGAAAAGCACATGACTAACTTTCC
For B1, the binding result is on record as “binds”.
